The source of these data is paper doi:10.1101/2024.06.04.597356.

This data set addresses CspA (UniProt P0A9X9 1-70). As to the kind of experiment: molecular beacon unfolding.

CspA, sequence (P0A9X9 whole entry): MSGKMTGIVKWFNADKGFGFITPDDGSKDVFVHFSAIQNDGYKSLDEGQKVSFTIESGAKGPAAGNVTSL

B1: 78-nt molecular beacon (structured_DNA)
DNA: AGGGTTCTTTGTGGTGTTTTTATCTGTGCTTCCCTATGCACCGCCGACGACAGTCGCTAACCTCTCGCTAAGAACCCT
Take B1: the binding result is “binds”.
